Experimental findings from US20100222258A1 (KABUSHIKI KAISHA HAYASHIBARA SEIBUTSU KAGAKU KENKYUJO, published 2010) are described below.

Assay [1] has as its target T1, TNF-R1 (a protein having the amino acid sequence, Accession No. M58286 registered at GENBANK) (UniProt P19438 30-211, limits assumed).
T1 construct: also called TNF receptor having a molecular weight of 55 kilo daltons
T1 sequence (looked up): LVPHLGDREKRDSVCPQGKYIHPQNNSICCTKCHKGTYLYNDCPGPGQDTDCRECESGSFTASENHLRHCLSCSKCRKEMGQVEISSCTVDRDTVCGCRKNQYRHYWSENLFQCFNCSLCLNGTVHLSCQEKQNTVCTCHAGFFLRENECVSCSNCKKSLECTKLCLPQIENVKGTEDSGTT
In words: SPR (BIACORE 2000), receptor on sensor tip; grade 1 = 0.001 to 0.1 time that of recombinant TNF-α. The text has this: (§1) Using the above detector based on surface plasmon resonance effect again, the resulting clones binding to TNF-R1 (or TNF-R2) were subjected to the remaining sensor tip conjugated with TNF-R2 (or TNF-R1) to measure receptor binding affinity and select clones having a variation of receptor binding affinity. […] The resulting DNAs were digested with restrict enzymes NdeI and BamHI to obtain DNA fragments. The resulting DNA fragments were introduced into a plasmid vector containing T7 promoter region, T7 terminator region, ampicillin resistant gene region and ColE1/Ori region (product name “pET-3a”, manufactured by “Novagen®” (EMD Biosciences, Inc.)) at the position of the above restriction sites. The resulting plasmid was introduced into E. coli BL21DE3 strain to obtain a transformed E. coli for producing the TNF mutant proteins. The obtained transformed E. coli was cultured according to usual method and centrifuged to collect E. coli pellet. The resulting pellet was washed twice with TES buffer (pH 8.0) (20 mM Tris-HCl, 10 mM ethylene diamine tetraacetic acid and 0.5 M sodium chloride) and admixed with TES buffer (pH 8.0) containing 0.2 mg/ml lysozyme. The resulting suspension was sonicated according to usual manner, and centrifuged to collect a precipitate containing the produced TNF mutant protein. The resulting precipitate was treated three times in a manner of admixing with TES buffer containing 1 (w/w) % Triton X-100, removed from supernatant by centrifuging, admixed with 50 mM Tris-HCl (pH 7.0) containing 8 M guanidine hydrochloride and 50 mM dithiothreitol, with stirring for 16 hours at ambient temperature under shielded condition, and centrifuged to collect a supernatant. The resulting supernatant was gently admixed with 100 time volumes of a aqueous solution containing 1 M Tris, 0.9 (w/v) % sodium chloride, 0.4 M L-arginine chloride, 2.5 mM reduced glutathione, 0.5 mM oxidized glutathione and 0.05 (w/v) % Tween 20, and kept at 4° C. for 16 hours.
(SPR reads the build-up and loss of mass on a sensor chip optically.)

Assay [2] has as its target T2, TNF-R2 (a protein having the amino acid sequence, Accession No. M55994 registered at GENBANK) (UniProt P20333 23-257, limits assumed).
T2 construct: also called TNF receptor with 75 kilo daltons
T2 sequence (looked up): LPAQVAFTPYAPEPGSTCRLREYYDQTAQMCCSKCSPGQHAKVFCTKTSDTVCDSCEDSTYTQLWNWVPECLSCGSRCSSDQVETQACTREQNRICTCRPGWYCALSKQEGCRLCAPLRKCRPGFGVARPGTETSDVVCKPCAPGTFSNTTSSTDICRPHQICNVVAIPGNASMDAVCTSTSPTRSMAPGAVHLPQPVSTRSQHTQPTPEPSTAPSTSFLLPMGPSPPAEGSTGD
In words: SPR (BIACORE 2000), receptor on sensor tip; grade 4 = two times or more that of recombinant TNF-α.
Source text: as §1

For assay [3], the target named is T2, TNF-R2 (a protein having the amino acid …). The assay is described as follows: SPR (BIACORE 2000), receptor on sensor tip; grade 3 = 0.5 to 2 times that of recombinant TNF-α.
Source text: as §1

The target of assay [4] is T1, TNF-R1 (a protein having the amino acid …). The assay is described as follows: SPR (BIACORE 2000), receptor on sensor tip; grade 0 = weakened to 0.001 or less of that of recombinant TNF-α.
Source text: as §1

For assay [5] the target is unchanged. In words: SPR (BIACORE 2000), receptor on sensor tip; grade 2 = 0.5 to 0.1 time that of recombinant TNF-α.
Source text: as §1

Another assay has as its target T3, TNF-R1 on HEp-2 cells (human, UniProt P19438 30-455).
T3 sequence (looked up): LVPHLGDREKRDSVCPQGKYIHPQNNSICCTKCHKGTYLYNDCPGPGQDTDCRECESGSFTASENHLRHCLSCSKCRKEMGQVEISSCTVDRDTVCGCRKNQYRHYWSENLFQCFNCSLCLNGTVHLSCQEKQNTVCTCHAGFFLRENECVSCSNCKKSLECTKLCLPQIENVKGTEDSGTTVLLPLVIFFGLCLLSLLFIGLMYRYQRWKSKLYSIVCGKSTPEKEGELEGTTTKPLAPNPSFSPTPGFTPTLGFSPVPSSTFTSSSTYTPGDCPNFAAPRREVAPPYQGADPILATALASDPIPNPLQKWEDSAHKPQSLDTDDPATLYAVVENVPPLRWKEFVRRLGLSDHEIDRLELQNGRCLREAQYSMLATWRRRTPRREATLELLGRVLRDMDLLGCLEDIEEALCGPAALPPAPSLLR
In words: cell-based or functional assay.

The next assay concerns the target T4, TNF-R1 on L-M cells (mouse, UniProt P25118 30-454).
T4 sequence (looked up): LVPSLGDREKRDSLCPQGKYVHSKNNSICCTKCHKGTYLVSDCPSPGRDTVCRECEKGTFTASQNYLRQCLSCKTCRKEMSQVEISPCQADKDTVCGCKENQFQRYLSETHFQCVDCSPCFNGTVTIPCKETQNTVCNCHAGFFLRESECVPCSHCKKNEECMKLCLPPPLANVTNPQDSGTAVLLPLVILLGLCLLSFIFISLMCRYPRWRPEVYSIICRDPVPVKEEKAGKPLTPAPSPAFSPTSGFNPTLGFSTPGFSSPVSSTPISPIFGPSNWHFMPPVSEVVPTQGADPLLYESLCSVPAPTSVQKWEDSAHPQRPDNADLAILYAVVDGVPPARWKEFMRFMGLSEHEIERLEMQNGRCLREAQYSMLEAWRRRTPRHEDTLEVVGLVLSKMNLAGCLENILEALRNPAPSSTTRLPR
The assay is described as follows: cell-based or functional assay.

The target in assay [6] is T1, TNF-R1 (a protein having the amino acid …). The assay is described as follows: SPR (BIACORE 2000), receptor on sensor tip; grade 4 = two times or more that of recombinant TNF-α.
Source text: as §1

Assay [7] concerns the target T2, TNF-R2 (a protein having the amino acid …). In words: SPR (BIACORE 2000), receptor on sensor tip; grade 0 = weakened to 0.001 or less of that of recombinant TNF-α.
Source text: as §1

B1: TNF mutant protein of clone No. 10 (ligand)
chain: VRSSSRTPSDMPVAHVVANPQAEGQLQWLNRRANALLANGVELRDNQLVVPSEGLYLIYSQVLFSGQGCPSTHVLLTHTISRIAVSYQTPVNLLSAIRSPCQRETPEGAEANPWYEPIYLGGVFQLEPGDRLSAEINRPDYLDFKDTGQVYFGIIAL
notes: Mutant of lysine-replaced TNF, made in E. coli
B1: the “binding affinity relative to recombinant TNF-α” value is 0.001 to 0.1 fold in assay [1] and no less than 2 fold in assay [2].

B2: TNF mutant protein of clone No. 11 (ligand)
chain: VRSSSRTPSDMPVAHVVANPQAEGQLQWLNRRANALLANGVELRDNQLVVPSEGLYLIYSQVLFSGQGCPSTHVLLTHTISRIAVSYQTPVNLLSAIRSPCQRETPEGAEANPWYEPIYLGGVFQLEPGDRLSAEINRPDYLDFRTDGQVYFGIIAL
notes: as for B1
In the case of B2, the “binding affinity relative to recombinant TNF-α” value in assay [3] is 0.5 to 2 fold. The “binding affinity relative to recombinant TNF-α (grade)” value in [4] was ≤ 0.001 times that of recombinant TNF-α.

B3: TNF mutant protein of clone No. 12 (ligand)
chain: VRSSSRTPSDMPVAHVVANPQAEGQLQWLNRRANALLANGVELRDNQLVVPSEGLYLIYSQVLFSGQGCPSTHVLLTHTISRIAVSYQTPVNLLSAIRSPCQRETPEGAEANPWYEPIYLGGVFQLEPGDRLSAEINRPDYLDFRETGQVYFGIIAL
notes: as for B1
Take B3: the “binding affinity relative to recombinant TNF-α” value in assay [3] lay in the range of 0.5 to 2 fold; in assay [1], 0.001 to 0.1 fold.

B4: TNF mutant protein of clone No. 13 (ligand)
chain: VRSSSRTPSDMPVAHVVANPQAEGQLQWLNRRANALLANGVELRDNQLVVPSEGLYLIYSQVLFSGQGCPSTHVLLTHTISRIAVSYQTPVNLLSAIRSPCQRETPEGAEANPWYEPIYLGGVFQLEPGDRLSAEINRPDYLDFADDGQVYFGIIAL
notes: as for B1
Take B4: the figures for the “binding affinity relative to recombinant TNF-α” value in assay [5] and in assay [2] were 0.1 to 0.5 fold and no less than 2 fold, respectively.

B5: TNF mutant protein of clone No. 35 (ligand)
chain: VRSSSRTPSDMPVAHVVANPQAEGQLQWLNRRANALLANGVELRDNQLVVPSEGLYLIYSQVLFSGQGCPSTHVLLTHTISRITPAINRPVNLLSAIRSPCQRETPEGAEANPWYEPIYLGGVFQLEPGDRLSAEINRPDYLDFAESGQVYFGIIAL
notes: Mutant of lysine-replaced TNF, made in E. coli; also called TNF antagonist of clone No. 35
On to B5, for which, in the assay with TNF-R1 on HEp-2 cells, the “Viability (%) of HEp-2 cells, 10 ng/ml TNF-α + 1,000 ng/ml TNF antagonist (9 without antagonist)” value is 10%; the “Viability (%) of HEp-2 cells, 10 ng/ml TNF-α + 10,000 ng/ml TNF antagonist (9 without antagonist)” value worked out at 18%; the “Viability (%) of HEp-2 cells, 10 ng/ml TNF-α + 100,000 ng/ml TNF antagonist (9 without antagonist)” value is 86%; the “Viability (%) of HEp-2 cells, 10 ng/ml TNF-α + 500,000 ng/ml TNF antagonist (9 without antagonist)” value turned out to be 103%. For the same molecule, in the assay with TNF-R1 on L-M cells, the “Viability (%) of L-M cells, 10 ng/ml TNF-α + 1,000 ng/ml TNF antagonist (17 without antagonist)” value is 43%; the “Viability (%) of L-M cells, 10 ng/ml TNF-α + 10,000 ng/ml TNF antagonist (17 without antagonist)” value was 58%; the “Viability (%) of L-M cells, 10 ng/ml TNF-α + 100,000 ng/ml TNF antagonist (17 without antagonist)” value came out at 61%; the “Viability (%) of L-M cells, 10 ng/ml TNF-α + 500,000 ng/ml TNF antagonist (17 without antagonist)” value is 64%. The “binding affinity relative to recombinant TNF-α” value in [6] is no less than 2 fold. Besides, the “binding affinity relative to recombinant TNF-α (grade)” value in assay [7] was ≤ 0.001 times that of recombinant TNF-α.
